Substrate: CCCCCCCCCCCCCCCC(=O)Oc1ccc([N+](=O)[O-])cc1
Assay: purified protein
Type: biochemical, Proteus mirabilis
Settings: soluble free enzyme, 0.1 M NaH2PO4 pH 7.0, 25 °C, 1 nM enzyme, pNPP 0-2.25 mM, pNPP stock in MeCN:Triton X-100 1:1

B1: Proteus mirabilis lipase (PML), soluble (Proteus mirabilis HI4320) (protein)
chain: MSTKYPIVLVHGLAGFNEIVGFPYFYGIADALRQDGHQVFTASLSAFNSNEVRGKQLWQFVQTLLQETQAKKVNFIGHSQGPLACRYVAANYPDSVASVTSINGVNHGSEIADLYRRIMRKDSIPEYIVEKVLNAFGTIISTFSGHRGDPQDAIAALESLTTEQVTEFNNKYPQALPKTPGGEGDEIVNGVHYYCFGSYIQGLIAGEKGNLLDPTHAAMRVLNTFFTEKQNDGLVGRSSMRLGKLIKDDYAQDHIDMVNQVAGLVGYNEDIVAIYTQHAKYLASKQL
notes: full-length PML gene in pET28b (NdeI/XhoI), N-terminal His-tag; no signal peptide needed; E. coli BL21(DE3)
- Km: 1770 ± 330 µM
- kcat: 112 ± 12 s⁻¹
- kcat/Km: 63200 ± 210 M⁻¹ s⁻¹

— paper PMC6598307, “Directed evolution of a genetically encoded immobilized lipase for the efficient production of biodiesel from waste cooking oil” (Biotechnology for Biofuels, 2019)
